Assays:
recombinant His-TBP = recombinant His-TBP (UniProt P20226 1-339); experiment: EMSA; supershifted by antibody; Pull-down: 100-250 pmole probe on M-280 streptavidin Dynabeads, 100-250 ug nuclear extract, 2.5 ug salmon sperm DNA, 1 h room temperature, washes with 0.5% NP-40; EMSA: LightShift kit, 20 fmol probe, 37 C 20 min, 6% gel in 1X TBE; salt and pH not given; conditions: protein: recombinant; tags: His; label: 5'-biotin; blunt
recombinant His-HOXA2 = recombinant His-HOXA2 (UniProt O43364 1-376); experiment: as above; conditions: protein: recombinant; tags: His; label: 5'-biotin; blunt
Chain of recombinant His-HOXA2 (O43364 whole entry): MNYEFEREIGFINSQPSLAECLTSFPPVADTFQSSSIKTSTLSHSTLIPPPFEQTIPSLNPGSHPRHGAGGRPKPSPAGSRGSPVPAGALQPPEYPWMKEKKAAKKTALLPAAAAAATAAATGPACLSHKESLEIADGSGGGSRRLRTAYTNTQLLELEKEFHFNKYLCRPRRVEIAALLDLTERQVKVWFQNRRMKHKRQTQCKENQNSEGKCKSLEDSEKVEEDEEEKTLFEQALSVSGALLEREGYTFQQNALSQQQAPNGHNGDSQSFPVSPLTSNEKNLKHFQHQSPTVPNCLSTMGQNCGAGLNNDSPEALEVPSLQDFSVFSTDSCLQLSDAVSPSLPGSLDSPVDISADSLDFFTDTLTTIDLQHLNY

Chain of recombinant His-TBP (P20226 whole entry): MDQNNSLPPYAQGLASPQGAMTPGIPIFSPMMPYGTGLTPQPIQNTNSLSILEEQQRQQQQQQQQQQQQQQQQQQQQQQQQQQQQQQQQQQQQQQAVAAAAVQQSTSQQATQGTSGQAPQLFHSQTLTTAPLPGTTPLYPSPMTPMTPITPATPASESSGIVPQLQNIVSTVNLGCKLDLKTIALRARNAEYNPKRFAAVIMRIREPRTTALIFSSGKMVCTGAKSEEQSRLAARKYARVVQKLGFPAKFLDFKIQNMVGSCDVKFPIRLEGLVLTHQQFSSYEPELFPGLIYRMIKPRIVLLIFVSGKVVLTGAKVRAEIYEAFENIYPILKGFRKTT

B1: MMP9 TATA WT (dsDNA)
DNA 1: GAGCGCCTCCTTAAAGCCCCCACAA
DNA 2: TTGTGGGGGCTTTAAGGAGGCGCTC
B1: binds (recombinant His-TBP); binds (recombinant His-HOXA2).

From publication PMC3875777, “Aberrantly hypermethylated Homeobox A2 derepresses metalloproteinase-9 through TBP and promotes invasion in Nasopharyngeal carcinoma”
